{
  "source": "the supplement of paper PMC12042874",
  "note": "± gives the uncertainty stated by the source.",
  "data": [
    {"assay": "amyloid nucleation score (Sup35N fusion, yeast selection) (log enrichment); library NNK2; higher = more nucleation; inactive = no reads after selection", "how_it_was_run": "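Nucleation score: DiMSum log enrichment of output over input reads, centred on the mode score of non-aggregating sequences. Only sequences with at least 100 input reads were kept. Reads came from Illumina sequencing of plasmid inserts before and after 7 days of growth at 30°C without adenine and uracil, in psi-negative yeast expressing Sup35N fused to peptides of 20 random codons after 24 hours of induction with 100 μM copper sulfate.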", "values": [
      {"substance": "VFYVTYTS", "amyloid nucleation score": "5.76 ± 0.074"},
      {"substance": "HGGFRDFQSLSVPIRYDLYD", "amyloid nucleation score": "1.14 ± 0.2"},
      {"substance": "YSLLCWVYIRSLNSLNKCCG", "amyloid nucleation score": "3.15 ± 0.075"},
      {"substance": "VVTKQMSRFS", "amyloid nucleation score": "0.701 ± 0.51"},
      {"substance": "LLGVFTETKGNP", "amyloid nucleation score": "2.53 ± 0.11"},
      {"substance": "AYCFVGFALVRCVGANDVRR", "amyloid nucleation score": "1.6 ± 0.22"},
      {"substance": "KNLMCQARNYSLIGALWSVS", "amyloid nucleation score": "-0.451 ± 0.76"},
      {"substance": "IGSLNMLLLGRLVVWMRHIA", "amyloid nucleation score": "0.312 ± 0.54"},
      {"substance": "SSFSIMLCGGVIFCIVAN", "amyloid nucleation score": "5.02 ± 0.078"},
      {"substance": "TSKFSLRVFDLFSIYGYGHT", "amyloid nucleation score": "-0.125 ± 0.45"},
      {"substance": "HYRISLSIPHIDHAKAQALL", "amyloid nucleation score": "-0.603 ± 1"},
      {"substance": "VDFCVDVLFC", "amyloid nucleation score": "-1.06 ± 1.1"},
      {"substance": "ILVRTSCGGM", "amyloid nucleation score": "-0.898 ± 1.1"},
      {"substance": "FCILYSVFNGRLRYAFGDAS", "amyloid nucleation score": "-2.06 ± 0.62"},
      {"substance": "CHYKMHSLHTARFEFFVMLF", "amyloid nucleation score": "-0.413 ± 0.41"},
      {"substance": "FMLVV", "amyloid nucleation score": "inactive"},
      {"substance": "LISVSTRKCVIIG", "amyloid nucleation score": "-0.326 ± 0.45"},
      {"substance": "LLVDTNYSSQMASERFRTCG", "amyloid nucleation score": "-0.34 ± 0.37"},
      {"substance": "LVSLVQRYLDHRPDNKM", "amyloid nucleation score": "-0.05 ± 0.48"},
      {"substance": "ESYTIDCRVFGLRGKGSTRA", "amyloid nucleation score": "0.695 ± 0.46"},
      {"substance": "QERSILGLHWYICRVAKLSF", "amyloid nucleation score": "0.196 ± 0.64"},
      {"substance": "FTLKINVPETGTIVLPELGS", "amyloid nucleation score": "0.235 ± 0.48"},
      {"substance": "VKIMMELPLKIDGFLSHVRR", "amyloid nucleation score": "0.088 ± 0.24"},
      {"substance": "LLVRLSVCLSSEPANWDTG", "amyloid nucleation score": "4.2 ± 0.073"},
      {"substance": "VQYMHNRMVLWFFSDPLKDR", "amyloid nucleation score": "2.58 ± 0.099"},
      {"substance": "DVLFDITNNGHSSLLAAV", "amyloid nucleation score": "0.224 ± 0.8"},
      {"substance": "ISGRLNRDGGSDKMSAEREG", "amyloid nucleation score": "1.25 ± 0.33"},
      {"substance": "AVDSHVIYSV", "amyloid nucleation score": "-0.96 ± 0.45"},
      {"substance": "VGTPEHKLFYGLCVALGQFQ", "amyloid nucleation score": "inactive"},
      {"substance": "YKVLSISLIVDTFARLYYAL", "amyloid nucleation score": "-0.921 ± 0.54"},
      {"substance": "IIAPSSEL", "amyloid nucleation score": "-0.479 ± 0.63"},
      {"substance": "FRYAVPMCTFFADYFMSDQS", "amyloid nucleation score": "inactive"},
      {"substance": "MLLHMWCWIGPGKYLSVTKF", "amyloid nucleation score": "inactive"},
      {"substance": "KMDSRSKTMRWYSCGSD", "amyloid nucleation score": "1.53 ± 0.26"},
      {"substance": "HEVLTVHNKAFRKYLSCIFR", "amyloid nucleation score": "inactive"},
      {"substance": "LSRLN", "amyloid nucleation score": "-0.055 ± 0.53"},
      {"substance": "IIKECEWNCIVTSDIAYVRW", "amyloid nucleation score": "5.481 ± 0.052"},
      {"substance": "HRYSRCIHLVKWVWCVQMIA", "amyloid nucleation score": "1.29 ± 0.32"},
      {"substance": "GDWSYGMGFNMVAMRNWEYL", "amyloid nucleation score": "-0.512 ± 0.63"},
      {"substance": "LLFMKTFVVRP", "amyloid nucleation score": "0.494 ± 0.26"},
      {"substance": "DIWMAINVGAYGVCEFCVSR", "amyloid nucleation score": "5.88 ± 0.071"},
      {"substance": "YTRNIHMHFHRMLPNVGMAF", "amyloid nucleation score": "inactive"},
      {"substance": "LLANPIELRRYGPTSLKVGI", "amyloid nucleation score": "-0.669 ± 0.55"},
      {"substance": "GKLHIRIWQDSVWLGDLRL", "amyloid nucleation score": "3.82 ± 0.063"},
      {"substance": "RDVFDMSSPTIAQCNVVRGM", "amyloid nucleation score": "-0.448 ± 0.32"},
      {"substance": "CPRLCLMLLPFKTCMIGTRE", "amyloid nucleation score": "0.57 ± 0.81"},
      {"substance": "MGLVDGMCMFDFDLVLAVVG", "amyloid nucleation score": "inactive"},
      {"substance": "MSLTIWGICRCKQ", "amyloid nucleation score": "-0.097 ± 0.76"},
      {"substance": "VTRDFSRGIGDWLICGDILE", "amyloid nucleation score": "-1.81 ± 0.49"},
      {"substance": "YNYVPLDFVRPVSDWSLELR", "amyloid nucleation score": "-0.405 ± 0.39"},
      {"substance": "VLWCDKWVGNNMKDGELTLW", "amyloid nucleation score": "0.446 ± 0.43"},
      {"substance": "YIVACSWYSGLLGLVGYRRK", "amyloid nucleation score": "7.884 ± 0.036"},
      {"substance": "IMVRLLDAYHTMRAKDSMGN", "amyloid nucleation score": "0.06 ± 0.62"},
      {"substance": "FIEGVRMHLRGM", "amyloid nucleation score": "2.86 ± 0.094"},
      {"substance": "DCRIVREHLPCPSFFRSFSR", "amyloid nucleation score": "0.164 ± 1.1"},
      {"substance": "IFRCRYTSGRFNAALSCC", "amyloid nucleation score": "-1.44 ± 0.49"},
      {"substance": "AYAKGYCLLSPVLDWRLHFS", "amyloid nucleation score": "2.52 ± 0.13"},
      {"substance": "YCTPCLW", "amyloid nucleation score": "0.452 ± 0.66"},
      {"substance": "GTTSCISDLQWMGYIVKL", "amyloid nucleation score": "0.039 ± 0.46"},
      {"substance": "WTLTGHVRNLKLQVCMSVY", "amyloid nucleation score": "0.789 ± 0.6"},
      {"substance": "YNSYVVRMGTI", "amyloid nucleation score": "-0.417 ± 1.1"},
      {"substance": "SSGGGYWLLWVE", "amyloid nucleation score": "-0.559 ± 0.76"},
      {"substance": "LFIGSIILHYGEKEVKMLAT", "amyloid nucleation score": "0.571 ± 0.49"},
      {"substance": "RLAVVLVPRIGYSSKSSETR", "amyloid nucleation score": "1.11 ± 0.34"},
      {"substance": "PSQVL", "amyloid nucleation score": "0.992 ± 0.52"},
      {"substance": "FDLWIPGAVVEVIDMGSAAR", "amyloid nucleation score": "0.651 ± 0.44"},
      {"substance": "GNRLRIKLL", "amyloid nucleation score": "-0.2 ± 0.27"},
      {"substance": "RLRYM", "amyloid nucleation score": "-0.631 ± 0.76"},
      {"substance": "AWCFSWHQKLLAR", "amyloid nucleation score": "0.471 ± 0.36"},
      {"substance": "RVDKMMYSRLPCLVAV", "amyloid nucleation score": "0.466 ± 0.49"},
      {"substance": "NLFLLYEAW", "amyloid nucleation score": "-0.155 ± 0.2"},
      {"substance": "MGENVLGRQGVLPKGEI", "amyloid nucleation score": "0.192 ± 0.45"},
      {"substance": "AFDEVSSFGGFFERCFWIKL", "amyloid nucleation score": "5.91 ± 0.076"},
      {"substance": "CTCKRLVLRVVVEWA", "amyloid nucleation score": "1.82 ± 0.12"},
      {"substance": "FAYSLTPFRWSRDLLMSPLG", "amyloid nucleation score": "0.104 ± 0.28"},
      {"substance": "LCDWCVLS", "amyloid nucleation score": "inactive"},
      {"substance": "EGSLPLGRSSCPGTLHDGMI", "amyloid nucleation score": "0.922 ± 0.34"},
      {"substance": "VRVDGPTLWCTQVRLSGERA", "amyloid nucleation score": "0.951 ± 0.17"},
      {"substance": "MLSTSDPVGFGRFCQNDWLN", "amyloid nucleation score": "0.256 ± 0.55"},
      {"substance": "TCRTSTRRPIGWLSWYVG", "amyloid nucleation score": "0.654 ± 0.43"},
      {"substance": "IRSFEFHNAWMCVYIWSKLY", "amyloid nucleation score": "-0.271 ± 1"},
      {"substance": "TVREKDYIEDFGVIWRKGIY", "amyloid nucleation score": "0.791 ± 0.81"},
      {"substance": "YHPTLVLGYQLTLLFMAFL", "amyloid nucleation score": "0.613 ± 0.74"},
      {"substance": "DWHYIEKWT", "amyloid nucleation score": "-0.12 ± 0.49"},
      {"substance": "FGCPIVPVISIGFPLYGVYY", "amyloid nucleation score": "1.1 ± 0.3"},
      {"substance": "LRLDLRMPQRYRLGDTFVSS", "amyloid nucleation score": "0.243 ± 0.24"}
    ]}
  ]
}
